The values that follow come from patent publication US7303917B2, “Modification of pollen coat protein composition” (priority 1998, dated 2007).

“Also recorded” adds a separate entry of the source.

Data set [1] deals with Nicotiana tabacum cv. Delgold pollen. As to the kind of experiment: In vitro germination of tobacco pollen. In kind it is cell-based. The settings on record: 42 μM papain, 71 μM cycloheximide; for effect on germination and pollen tube growth: 30 μM onchocystatin added to 42 μM papain; for Average Pollen Tube Length / Pollen Germination: 3 h culture, 25° C, 30 μM onchocystatin, 1 mg/ml casein. The protocol: Pollen from Nicotiana tabacum cv. Delgold was harvested by placing 5 dehiscent anthers in 1 ml of sterile Brewbaker and Kwack medium (Brewbaker, J. and Kwack, B. Amer. J. Bot. 50: 859-865 (1963)) containing various concentrations of cylcoheximide, or papain, or casein. The medium consisted of 10% w/v sucrose, 100 ppm H3BO3, 300 ppm Ca (NO3)2.4H2O, 200 ppm MgSO4.7H2O, and 100 ppm KNO3 with either 42 μM papain (twice crystallized, Sigma), with or without 30 μM recombinant onchocystatin, or 71 μM cycloheximide (Sigma), or 1 mg/ml casein. Anthers were vortexed in medium for 30 sec followed by centrifugation at 2,000 rpm for 2 min. Pollen was cultured in 50 μl drops in sterile 15×60 mm petri dishes at 25° C. The percentage of pollen grains germinated after 3 h of culture was measured and the average pollen tube length was recorded using an ocular micrometer on an inverted microscope.

For data set [2], the target named is papain (Carica papaya, UniProt P00784). Put plainly: Protease inhibition assay (papain, Pyr-Phe-Leu-pNA). In kind it is biochemical. To be noted: 20 ng papain, 2 to 3 h, read at 410 nm. As to the method: (§1) Mature pollen was isolated by gently squeezing anthers from open flowers just prior to anther dehiscence in a microfuge tube with a pestle to release the pollen grains and suspend them in extraction buffer (100 mM HEPES pH 7.5, 10 mM KCl, 1 mM MgCl2, 1 mM EDTA, 1 mM DTT, 0.4 M sucrose, 0.01% Triton X-100). Pollen grains were filtered through […] mesh to remove debris, pelleted by centrifugation and frozen in liquid nitrogen. Pollen grains were ground to a fine powder, mixed with 1.4 μl per anther of extraction buffer (100 mM MES pH 6.5, 1% Triton X-100) and centrifuged at 4° C. for 5 min. Protein contents of extracts were determined using the BioRad Protein Assay.
(§2) For the protease inhibition assay, 5 μg of protein extract in 50 μl of extraction buffer described above was added to a microtiter plate followed by 20 ng of papain in 50 μl of 50 mM MES pH6.5 and incubated for 15 min at room temperature. Then 100 μl of substrate solution (1 mM Pyr-Phe-Leu-pNA (BACHEM) in activation buffer (30% DMSO, 1 mM EDTA,.1 mM DTT in 50 mM MES pH 6.5)) was added and the plate incubated in the dark at room temperature. The plate was read after 2 to 3 h of incubation on a plate reader at 410 nm. Results were calculated as the percentage of papain protease activity present in the mature pollen protein extract of the non-transformed control plant±standard deviation. […]

The target in data set [3] is T1, papain (Carica papaya, UniProt P00784).
T1 sequence (P00784 whole entry, looked up): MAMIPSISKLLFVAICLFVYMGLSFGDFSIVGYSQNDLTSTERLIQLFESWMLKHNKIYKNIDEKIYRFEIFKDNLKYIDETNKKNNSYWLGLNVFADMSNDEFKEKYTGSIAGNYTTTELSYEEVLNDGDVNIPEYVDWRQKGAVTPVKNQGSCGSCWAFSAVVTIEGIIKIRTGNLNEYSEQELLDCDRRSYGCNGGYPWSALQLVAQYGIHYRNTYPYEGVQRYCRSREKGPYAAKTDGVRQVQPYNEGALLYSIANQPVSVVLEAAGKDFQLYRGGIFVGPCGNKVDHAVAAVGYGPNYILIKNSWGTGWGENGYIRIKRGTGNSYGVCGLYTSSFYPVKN
Put plainly: Phage ELISA, wells coated with papain. In kind it is binding. To be noted: well coated with papain. The protocol:
(§3) A SacI and Nco I digest of the coding region of the protease inhibitor clone OV7 (Lustigman et al 1991), is ligated to the pCantab 5E vector (Pharmacia Biotech) Sac I and Nco I sites. This phagemid is transformed into E. coli TG1 cells by electroporation. An overnight culture of 10 μL of these cells are grown in 5 ml of SOBAG medium containing 10 μl of carbenicillin (50 mg/mL) at 28° C. The next day, 0.5 ml of this culture is used to inoculate 25 ml of 2×YT medium, containing 50 μl of carbenicillin (50 mg/ml) and 1.56 ml of 2M glucose and grown for 1.25 h at 37° C., with shaking at 250 rpm. At this point 62.5 μl of helper phage strain M13K07 ([…]) is added and the cells were incubated at 37° C. for 30 min with shaking at 150 rpm, and for another 30 min at 250 rpm. Recombinant phage particles are harvested by centrifugation and PEG precipitation. […]
(§4) After incubating the phage indicated (OV7-those displaying the cysteine protease inhibitor on their surface, M13-wild type or control phage not displaying any foreign protein, and a no phage control) for 2 h, the wells are washed in PBS with 0.5% Tween-20. Phage particles that bound to the antigens are detected with a 1:5000 dilution of anti-M13 antibody/HRP conjugate (Pharmacia). Detection is with the HRP substrate ABTS solution (Pharmacia) for 30 min and absorbance was measured at 410 nm.

A short description of data set [4]: Phage ELISA, no antigen coated in well. In kind it is binding. As to the method:
as §3, §4
In general terms: In an ELISA, binding on a coated surface is turned into a signal by an enzyme label.

The test system of a further data set is trypsin. As to the kind of experiment: Phage ELISA, wells coated with trypsin. In kind it is binding. To be noted: well coated with trypsin. As to the method:
as §3, §4

The test system of the next data set is anti-OV7 antibodies. Put plainly: Phage ELISA, wells coated with anti-OV7 antibodies. To be noted: well coated with anti-OV7 antibodies; phage diluted 1 in 100. Type of data set: binding, rabbit. As to the method: as §3, §4
Data set [5] deals with T1, papain. As to the kind of experiment: Protease inhibition assay (papain, Pyr-Phe-Leu-pNA). To be noted: 20 ng papain, 2 to 3 h, read at 410 nm. In kind it is biochemical. The protocol:
as §1, §2
This is another data set of the same source.

`C[C@@H]1C[C@@H]([C@H](O)CC2CC(=O)NC(=O)C2)C(=O)[C@@H](C)C1` [Cycloheximide, cycloheximide]: in data set [1], the “effect on germination and pollen tube growth” value (shortened to “effect”) is “inhibited the germination and elongation of pollen tubes”; the “Average Pollen Tube Length” value amounted to 15 μm; the “Pollen Germination” value worked out at 27%.

With `CC(C)C[C@H](NC(=O)[C@H]1O[C@@H]1C(=O)O)C(=O)NCCCCN=C(N)N` [E-64, reference compound], the “percentage of papain protease activity of the non-transformed control plant extract” value on papain [2] is listed as 3%.

Take Casein: in data set [1], the “Average Pollen Tube Length” value amounted to 95 μm and the “Pollen Germination” value is listed as 74%.

B1: Papain: cysteine protease papain (twice crystallized, Sigma) (protein, UniProt P00784 134-345, looked up)
Papain: IPEYVDWRQKGAVTPVKNQGSCGSCWAFSAVVTIEGIIKIRTGNLNEYSEQELLDCDRRSYGCNGGYPWSALQLVAQYGIHYRNTYPYEGVQRYCRSREKGPYAAKTDGVRQVQPYNEGALLYSIANQPVSVVLEAAGKDFQLYRGGIFVGPCGNKVDHAVAAVGYGPNYILIKNSWGTGWGENGYIRIKRGTGNSYGVCGLYTSSFYPVKN
For B1, in data set [1], the “effect” value is “inhibited the germination and stunted the growth of pollen tubes”; the “Average Pollen Tube Length” value is given as 28 μm; the “Pollen Germination” value is 56%.

B2: OV7: phage displaying the Onchocerca volvulus cysteine protease inhibitor OV7 on their surface as fusion to gene 3 coat protein (protein)
chain: AKNPSKMESKTGENQDRPVLLGGWEDRDPKDEEILELLPSILMKVNEQSNDEYHLMPIKLLKVSSQVVAGVKYKMDVQVARSQCKKSSNEKVDLTKCKKLEGHPEKVMTLEVWEKPWENFMRVEILGTKEV
modifications: left off: large carriers
With B2, the figures for the Result result (with papain [3]; in data set [4]; in the data set with trypsin) were “binding specifically to papain”, “very little OV7-plate” and “does not bind to trypsin; also recorded: no OV7-trypsin interaction”, respectively. In addition, the O.D.410 in the data set with papain [3] (phage diluted 1 in 100) was 0.788; in data set [4] (phage diluted 1 in 100) it was 0.125; in the data set with trypsin (phage diluted 1 in 100), 0.037; with anti-OV7 antibodies it was 0.451.

B3: OV7-GST: cysteine protease inhibitor OV7 conjugated to GST (protein)
chain: B2 chain
modifications: left off: a dimerising Fc or GST
As to B3, the “percentage of papain protease activity of the non-transformed control plant extract” value in the data set with papain [5] is reported as 2%.

B4: onchocystatin (OV7): recombinant cysteine protease inhibitor onchocystatin (OV7) from Onchocerca volvulus (protein)
chain: B2 chain
With B4, in data set [1], the “effect” value was “restored the germination and pollen tube growth”.
